Source: the Human Domainome abundance scans (Beltran et al. 2025)
± gives the uncertainty stated by the source.

B1: Gamma-crystallin D, residues 90 to 170; numbered along this chain, P07320 (parent)
chain: IRLYEREDYRGQMIEFTEDCSCLQDRFRFNEIHSLNVLEGSWVLYELSNYRGRQYLLMPGDYRRYQDWGATNARVGSLRRV

Variants of: B1
Assay: abundance fitness (aPCA) (normalised: wild type 0, dead -1); higher = more abundant; growth selection in yeast, the domain comes from the species named
Settings: Homo sapiens

| Variant | abundance fitness |
| --- | --- |
| S77T | -0.921 ± 0.3 |
| S77C | -0.28 ± 0.17 |
| N72H | -0.083 ± 0.12 |
| N72R | 0.026 ± 0.054 |
| N72Q | 0.03 ± 0.11 |
| N72S | 0.051 ± 0.083 |
| N72L | 0.149 ± 0.066 |
| N72Y | 0.173 ± 0.14 |
| Y4G | -0.683 ± 0.21 |
| Y4N | 0.02 ± 0.11 |
| P59C | 0.011 ± 0.15 |
| P59I | -0.157 ± 0.38 |
| P59A | 0.088 ± 0.092 |
| P59K | -0.118 ± 0.13 |
| P59H | -0.052 ± 0.24 |
| P59G | 0.065 ± 0.076 |
| P59S | -0.007 ± 0.079 |
| P59Q | 0.05 ± 0.13 |
| E46R | -0.273 ± 0.068 |
| E46C | -0.201 ± 0.1 |
| E46Q | -0.012 ± 0.11 |
| E46F | -0.197 ± 0.17 |
| E46P | -0.199 ± 0.096 |
| D25S | -0.127 ± 0.092 |

| Variant | abundance fitness |
| --- | --- |
| D25K | 0.103 ± 0.33 |
| D25G | 0.041 ± 0.079 |
| D25E | 0.088 ± 0.13 |
| R53K | 0.038 ± 0.19 |
| R53P | 0.039 ± 0.091 |
| R53Q | 0.085 ± 0.12 |
| R53A | 0.068 ± 0.12 |
| R53H | 0.062 ± 0.25 |
| R53S | 0.059 ± 0.092 |
| E5W | 0.154 ± 0.1 |
| E5F | 0.002 ± 0.13 |
| E5Y | 0.167 ± 0.19 |
| E5P | 0.027 ± 0.099 |
| E5I | 0.079 ± 0.21 |
| E5M | 0.051 ± 0.17 |
| E5C | -0.179 ± 0.22 |
| I14A | -0.401 ± 0.045 |
| I14C | -0.004 ± 0.1 |
| E39M | -0.054 ± 0.18 |
| E39C | -0.156 ± 0.12 |
| E39S | -0.024 ± 0.077 |
| E39Q | -0.084 ± 0.2 |
| E39I | -0.03 ± 0.22 |
| S48F | -0.124 ± 0.12 |

| Variant | abundance fitness |
| --- | --- |
| S48E | 0.208 ± 0.14 |
| S48K | -0.017 ± 0.15 |
| R64M | -0.11 ± 0.17 |
| R64T | 0.063 ± 0.14 |
| R64A | -0.019 ± 0.068 |
| R64P | -0.423 ± 0.12 |
| R64Q | -0.031 ± 0.12 |
| R64F | 0.04 ± 0.11 |
| H33T | -0.065 ± 0.11 |
| H33K | -0.057 ± 0.15 |
| H33S | 0.118 ± 0.1 |
| H33M | 0.05 ± 0.12 |
| Y62A | 0.153 ± 0.056 |
| Y62H | -0.076 ± 0.18 |
| E15P | 0.038 ± 0.11 |
| E15C | 0.008 ± 0.18 |
| E15L | -0.032 ± 0.075 |
| E15Y | -0.135 ± 0.2 |
| G60A | -0.038 ± 0.069 |
| G60S | 0.064 ± 0.086 |
| G60L | -0.197 ± 0.064 |
| V43R | 0.006 ± 0.067 |
| V43K | -0.148 ± 0.13 |
| V43L | -0.1 ± 0.12 |

| Variant | abundance fitness |
| --- | --- |
| V43M | 0.079 ± 0.11 |
| V43W | -0.028 ± 0.12 |
| R10Y | -0.087 ± 0.18 |
| R10V | -0.005 ± 0.069 |
| R10K | 0.226 ± 0.13 |
| L44H | -0.721 ± 0.26 |
| L44Y | -0.073 ± 0.14 |
| L44T | -0.03 ± 0.12 |
| L44F | -0.021 ± 0.16 |
| W68M | 0.15 ± 0.11 |
| W68L | 0.164 ± 0.079 |
| W68Y | -0.163 ± 0.33 |
| W68P | -0.067 ± 0.1 |
| W68I | 0.116 ± 0.14 |
| E18C | 0.05 ± 0.1 |
| E18Q | 0.054 ± 0.17 |
| E18W | -0.142 ± 0.096 |
| E18N | 0.11 ± 0.23 |
| L38I | 0.007 ± 0.16 |
| L38A | -0.066 ± 0.069 |
| L38Q | -0.007 ± 0.17 |
| L38W | 0.153 ± 0.097 |
| L38C | -0.102 ± 0.1 |
| R2T | -0.105 ± 0.19 |

| Variant | abundance fitness |
| --- | --- |
| F16C | -0.029 ± 0.12 |
| F16E | -0.018 ± 0.095 |
| F16I | -0.077 ± 0.26 |
| F16Y | -0.606 ± 0.42 |
| F16V | 0.034 ± 0.071 |
| F16T | -0.089 ± 0.12 |
| V75Y | -0.001 ± 0.23 |
| V75H | -0.742 ± 0.43 |
| L57Y | -0.13 ± 0.18 |
| I1N | 0.12 ± 0.31 |
| I1G | -0.344 ± 0.18 |
| I1F | -0.462 ± 0.45 |
| I1T | -0.37 ± 0.22 |
| I1V | -0.094 ± 0.27 |
| Q24T | -0.08 ± 0.12 |
| Q24K | 0.068 ± 0.18 |
| Q24P | 0.02 ± 0.13 |
| L23R | -0.332 ± 0.061 |
| L23H | -0.833 ± 0.49 |
| L23N | -0.055 ± 0.18 |
| L23P | -0.029 ± 0.079 |
| L23W | -0.215 ± 0.098 |
| C20M | -0.04 ± 0.13 |
| C20S | -0.011 ± 0.088 |

| Variant | abundance fitness |
| --- | --- |
| A70Q | -0.032 ± 0.1 |
| A70R | 0.095 ± 0.049 |
| A70S | -0.025 ± 0.093 |
| A70L | 0.045 ± 0.063 |
| T17P | 0.152 ± 0.082 |
| T17N | -0.001 ± 0.25 |
| T17K | -0.061 ± 0.13 |
| T17L | 0.001 ± 0.069 |
| S41A | -0.222 ± 0.079 |
| S41Y | -0.078 ± 0.098 |
| S41K | 0.045 ± 0.15 |
| S21M | -0.171 ± 0.2 |
| S21N | -0.183 ± 0.31 |
| S21E | 0.069 ± 0.12 |
| S21C | -0.054 ± 0.13 |
| S21F | 0.017 ± 0.16 |
| Y45T | -0.07 ± 0.097 |
| Y45V | -0.88 ± 0.14 |
| Y45A | -0.347 ± 0.083 |
| Y45M | -0.401 ± 0.13 |
| Y45D | -1.01 ± 0.24 |
| G40T | -0.041 ± 0.11 |
| G40D | 0.011 ± 0.11 |
| G40S | -0.021 ± 0.083 |

| Variant | abundance fitness |
| --- | --- |
| D67F | -0.062 ± 0.4 |
| D67I | -0.155 ± 0.22 |
| D67E | 0.049 ± 0.13 |
| L3V | 0.076 ± 0.14 |
| L3T | -0.239 ± 0.31 |
| L3G | -0.131 ± 0.18 |
| R26Q | 0.032 ± 0.16 |
| R26W | 0.061 ± 0.089 |
| R26A | -0.027 ± 0.092 |
| R26N | 0.039 ± 0.23 |
| R51N | 0.139 ± 0.21 |
| R51G | 0.064 ± 0.079 |
| R51E | 0.158 ± 0.14 |
| R51T | 0.056 ± 0.12 |
| R51H | -0.122 ± 0.28 |
| S34H | -0.771 ± 0.23 |
| S34V | -1.08 ± 0.16 |
| S34E | -0.853 ± 0.19 |
| Y65K | -0.113 ± 0.11 |
| Y65N | 0.096 ± 0.15 |
| Y65A | -0.093 ± 0.084 |
| Y65W | 0.005 ± 0.14 |
| Y65C | -0.144 ± 0.12 |
